Reference: patent US20030203372A1, “Analysis method” (priority 2000, published 2003)

B1: p1E11 (nucleic acid, listed as Homo Sapiens)
DNA: TCTCTACAAATNNCTATAACAAAACTTTTTAGGAAAGTACCACAAATATGTTAAACAGAAGAAGCAAATCTCAAATAATGTGCAAAAGCTGTGAGTTTCTTCTTACATAAAACTGGTACCTAAGCAAGTGAGGGTTCATTTTATTTTTCACTCACCAATCCCCATATCATTATACAGTAACACCATACAGCCAAAACGGCCATGATATTCCTCCCTTCTCAGCCAAAATTGGGCAAGAGAGAATGACCCTTGTAGGGGAAAAGAAACCTCTACGATAAACTGAAATGCCACCATCAGGGTTTGTTGAAACTGTAGGNACAGGGTCTACGNCTCACTTAGCTGCTAATGAGTTTCTATGGTTCCAGNTGGGGTAGTTCAAAGTA
modifications: EST array clone; misc_feature 12, 13, 317, 330, 366: n = A,T,C or G
B2: p2A24 (nucleic acid, listed as Homo Sapiens)
DNA: TTTTTTTTTATTTGGATTCTATTTATTTAAAATTAAATTCTTTGCAAAATTGAACTTCTCAACTAAAACGTGTCCATGTCAGAATTTTAACTGTTAGCAGGTAGTTTGTGGCAAAGATGGCTAAATAATGAAGCAAATTAGAATCTGTGTGTATACTAATGAGCTGCTTTTTTTCTGTTGAGACTATCATTATTTGTCTTATTACCCAAGAGGCAATTACCTGAATTTGGATGTCTGAATTATAACTTATGCAGGAATAGTTCTGTAAATACATTTAAATAAACTGTAAAGATATTTAATAAATATAGTATTTATACTAATCTGTGTGCTTCTTTTGGTTTGAATAGTAACTAAATGAGACACCAGCCCTTGACATTGAGTTTGTTGGTCACTATCAGGTCCTCATTTCCAAGCCTCCTAGTCATTCTAGCACTGATTATATGCTGCTACTTTAACTGGCTCCAGCTGCTTCACTACATCAGTTTAGCTTCCTCAGAAATTCATCAAAATGGACGGACAATTAAATGTAAATTATAGAACTTTTTCCCAGCTGAGGCTTTGCACCTTCCGTATAGTATAGAGGGAAGCTACAAAAA

System: primary human cell cultures (11 cell types)
Assay: Custom gene array, 11 human cell types in normoxia or hypoxia for 6 hr and 18 hr;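 for mRNA expression level, #1 HY 18 hr: cell type #1 is adipocyte from subcutaneous adult adipose tissue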;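 for mRNA expression level, #1 HY 6 hr: cell type #1 is adipocyte from subcutaneous adult adipose tissue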;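 for mRNA expression level, #1 NO: cell type #1 is adipocyte from subcutaneous adult adipose tissue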;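 for mRNA expression level, #2 HY 18 hr: cell type #2 is fetal cardiomyocyte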;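 for mRNA expression level, #2 HY 6 hr: cell type #2 is fetal cardiomyocyte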;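 for mRNA expression level, #2 NO: cell type #2 is fetal cardiomyocyte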;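 for mRNA expression level, #3 HY 6 hr: cell type #3 is human umbilical vein endothelial cells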;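 for mRNA expression level, #3 NO: cell type #3 is human umbilical vein endothelial cells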;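 for mRNA expression level, #4 HY 18 hr: cell type #4 is adult dermal fibroblast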;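 for mRNA expression level, #4 HY 6 hr: cell type #4 is adult dermal fibroblast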;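 for mRNA expression level, #4 NO: cell type #4 is adult dermal fibroblast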;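 for mRNA expression level, #6 HY 6 hr: cell type #6 is blood-derived macrophage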;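 for mRNA expression level, #6 NO: cell type #6 is blood-derived macrophage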
Type: cell-based
Details: for mRNA expression level, #1 HY 6 hr: cell type #1, hypoxia 6 hr; for mRNA expression level, #1 HY 18 hr: cell type #1, hypoxia 18 hr; for mRNA expression level, #1 NO: cell type #1, normoxia; for mRNA expression level, #2 HY 6 hr: cell type #2, hypoxia 6 hr; for mRNA expression level, #2 HY 18 hr: cell type #2, hypoxia 18 hr; for mRNA expression level, #2 NO: cell type #2, normoxia; for mRNA expression level, #3 HY 6 hr: cell type #3, hypoxia 6 hr; for mRNA expression level, #3 HY 18 hr: cell type #3, hypoxia 18 hr; for mRNA expression level, #3 NO: cell type #3, normoxia; for mRNA expression level, #4 HY 6 hr: cell type #4, hypoxia 6 hr; for mRNA expression level, #4 HY 18 hr: cell type #4, hypoxia 18 hr; for mRNA expression level, #4 NO: cell type #4, normoxia; for mRNA expression level, #5 HY 6 hr: cell type #5, hypoxia 6 hr; for mRNA expression level, #5 NO: cell type #5, normoxia; for mRNA expression level, #6 HY 6 hr: cell type #6, hypoxia 6 hr; for mRNA expression level, #6 NO: cell type #6, normoxia
Experimental: Equivalent cultures of non-immortalized, non-transformed primary human cells of 10 distinct types, were cultured in either normoxia or were exposed to hypoxia for 6 hr and 18 hr, and gene expression changes were determined. […] Moreover, unlike the vast majority of information in the public domain relating to genes responsive to hypoxia, all of these cells were human and were cultured without any modifications following isolation from the human donors.
A non-primary cell type (#9) was used to represent neurons, since primary human neurons are difficult to source. Therefore a total of 11 cell types are compared. It should be noted that RNA from hepatocytes at the […] timepoint of hypoxia was not available for this work.
Each RNA sample was hybridised to duplicate or triplicate arrays, to ensure reproducible data, and was analysed using GeneSpring software. Data from replicate arrays were merged during analysis to generate mean values. Data normalisation was achieved per-array using the aforementioned list of control genes, such that differences in RNA labelling or hybridization due to experimental variation were corrected by referencing each gene to the mean value of the reference genes on the same array. Also, for each gene, expression values were obtained which represent the value in each experimental condition (e.g. macrophages 6 hr hypoxia) as compared to the median of value of that gene throughout the full range of experimental conditions (i.e. from all cell types). […] This is common in microarray data analysis.

Molecule | mRNA expression level, #1 HY 6 hr | mRNA expression level, #1 HY 18 hr | mRNA expression level, #1 NO | mRNA expression level, #2 HY 6 hr | mRNA expression level, #2 HY 18 hr | mRNA expression level, #2 NO | mRNA expression level, #3 HY 6 hr | mRNA expression level, #3 HY 18 hr | mRNA expression level, #3 NO | mRNA expression level, #4 HY 6 hr | mRNA expression level, #4 HY 18 hr | mRNA expression level, #4 NO | mRNA expression level, #5 HY 6 hr | mRNA expression level, #5 NO | mRNA expression level, #6 HY 6 hr | mRNA expression level, #6 NO | also measured
B1 | 1.12 | 0.87 | 1.36 | 2.86 | 3.03 | 2.09 | 0.91 | 0.88 | 0.74 | 0.59 | 0.79 | 0.89 | 2.09 | 0.77 | 2.97 | 2.76 | #6 HY 18 hr (mRNA expression level) (cell type #6, hypoxia 18 hr): 2.90; #7 HY 6 hr (mRNA expression level) (cell type #7, hypoxia 6 hr): 0.64; #7 HY 18 hr (mRNA expression level) (cell type #7, hypoxia 18 hr): 0.34; #7 NO (mRNA expression level) (cell type #7, normoxia): 0.63; #8 HY 6 hr (mRNA expression level) (cell type #8, hypoxia 6 hr): 1.47; #8 HY 18 hr (mRNA expression level) (cell type #8, hypoxia 18 hr): 1.35; #8 NO (mRNA expression level) (cell type #8, normoxia): 0.64; #9 HY 6 hr (mRNA expression level) (cell type #9, hypoxia 6 hr): 1.16; #9 HY 18 hr (mRNA expression level) (cell type #9, hypoxia 18 hr): 0.64; #9 NO (mRNA expression level) (cell type #9, normoxia): 1.18; #10 HY 6 hr (mRNA expression level) (cell type #10, hypoxia 6 hr): 0.79; #10 HY 18 hr (mRNA expression level) (cell type #10, hypoxia 18 hr): 0.88; #10 NO (mRNA expression level) (cell type #10, normoxia): 0.74; #11 HY 6 hr (mRNA expression level) (cell type #11, hypoxia 6 hr): 2.49; #11 HY 18 hr (mRNA expression level) (cell type #11, hypoxia 18 hr): 1.93; #11 NO (mRNA expression level) (cell type #11, normoxia): 1.79; HIGHEST FOLD CHANGE IN HYPOXIA (hr hypoxia + cell type) (hypoxia/normoxia induction ratio, 6 hr hepatocyte): 2.73 (6 hr hepatocyte) fold
B2 | 0.65 | 0.67 | 1.21 | 2.21 | 2.48 | 2.42 | 3.05 | 2.59 | 2.35 | 0.76 | 0.68 | 1.10 | 0.91 | 0.68 | 0.22 | 0.28 | HIGHEST FOLD CHANGE IN HYPOXIA (hr hypoxia + cell type) (DOWN, 18 hr adipocyte): 1.85 DOWN (18 hr adipocyte) ^ fold
